Broadly, the IC50 is the concentration needed to halve the response being measured. High values mean lower potency, low ones higher potency. The Kd is the concentration at which binding is half-saturated. High values mean a looser complex, low ones a tighter complex.

We go through 1 molecule from patent US20030165995A1 (Takeda / Millennium, published 2003).

Experiment [1] concerns the target T1, human Bonzo with N-terminal hemagglutinin (HA) epitope, expressed on transfected L1.2 cells (Bonzo/L1.2 cells) (human, UniProt O00574 1-342).
T1 construct: also called CXCR6; STRL33
T1 sequence: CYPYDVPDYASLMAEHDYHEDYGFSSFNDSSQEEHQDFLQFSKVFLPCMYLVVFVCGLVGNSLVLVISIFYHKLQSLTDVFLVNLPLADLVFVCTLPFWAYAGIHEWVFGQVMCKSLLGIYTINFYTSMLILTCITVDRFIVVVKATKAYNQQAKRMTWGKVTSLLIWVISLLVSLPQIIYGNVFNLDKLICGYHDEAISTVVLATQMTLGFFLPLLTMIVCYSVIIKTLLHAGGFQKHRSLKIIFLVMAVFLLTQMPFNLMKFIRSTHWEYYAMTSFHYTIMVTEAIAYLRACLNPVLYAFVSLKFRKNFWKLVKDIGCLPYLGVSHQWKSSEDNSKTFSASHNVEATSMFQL
Nature of the experiment: competition with 1 nM 125I-labeled SExCkine for binding to Bonzo/L1.2 cells, gamma counting. As for the experimental part:
(§1) The amount of ¹²⁵I-labeled SExCkine (CXCL16) that bound to Bonzo/L1.2 cells was determined by scintillation counting, and % inhibition of binding (0% inhibition is the amount of binding in the absence of unlabeled SExCkine (CXCL16)) was calculated. […] FIG. 43B depicts the Scatchard analysis of the binding data.
(§2) Exponentially-growing Bonzo/L1.2 transfectants were counted on the day of the assay and were resuspended in binding assay buffer (BAB) (10 mM HEPES/1 mM CaCl₂/5 mM MgCl₂/0.5% BSA/0.05% Na Azide) at a density of 2.5×10⁶ cells/mL. Purified recombinant SExCkine (CXCL16) was labeled with I¹²⁵ using a sodium iodine method (Amersham, Arlington Heights, Ill.) and was diluted to 4 nM in BAB. Cold (unlabeled) SExCkine (in PBS at 5.3 μM) was diluted for competition in BAB to 0.4 nM, 2 nM, 4 nM, 20 nM, 40 nM, and 400 nM. […] For calculation of total I¹²⁵ input, 50 μL of cells was added to 25 μL of I¹²⁵I-labeled SExCkine and 25 μL BAB. All tubes were incubated for 1 hour at room temperature, after which time the cells were spun down at 3500 rpm and washed five times in BAB+0.5 M NaCl. After the final wash, the cell pellet was resuspended in 100 μL of wash buffer and the I¹²⁵ counts were calculated using a Cobra II auto-gamma scintillation counter (Packard, Downers Grove, Ill.) along with the total input sample. Binding data was calculated using a program written in Excel.

The target in experiment [2] is T2, CCR6 expressed on transfected L1.2 cells (UniProt P51684 1-374, limits assumed).
T2 construct: whole, on cells
T2 sequence (looked up): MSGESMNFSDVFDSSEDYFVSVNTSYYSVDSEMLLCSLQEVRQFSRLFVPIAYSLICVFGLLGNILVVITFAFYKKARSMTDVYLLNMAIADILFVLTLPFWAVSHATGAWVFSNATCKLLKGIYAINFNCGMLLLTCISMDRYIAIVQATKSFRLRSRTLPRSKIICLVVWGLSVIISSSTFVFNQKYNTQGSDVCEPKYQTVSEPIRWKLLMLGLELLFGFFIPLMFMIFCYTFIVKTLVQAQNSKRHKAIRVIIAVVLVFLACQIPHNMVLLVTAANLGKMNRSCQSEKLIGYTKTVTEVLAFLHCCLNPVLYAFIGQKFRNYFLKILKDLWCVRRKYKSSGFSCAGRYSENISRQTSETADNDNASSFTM
Nature of the experiment: 125I-labeled SExCkine binding to receptor transfectants.

Experiment [3] addresses T3, CCR7 expressed on transfected L1.2 cells (UniProt P32248 25-378, limits assumed).
T3 construct: whole, on cells
T3 sequence (looked up): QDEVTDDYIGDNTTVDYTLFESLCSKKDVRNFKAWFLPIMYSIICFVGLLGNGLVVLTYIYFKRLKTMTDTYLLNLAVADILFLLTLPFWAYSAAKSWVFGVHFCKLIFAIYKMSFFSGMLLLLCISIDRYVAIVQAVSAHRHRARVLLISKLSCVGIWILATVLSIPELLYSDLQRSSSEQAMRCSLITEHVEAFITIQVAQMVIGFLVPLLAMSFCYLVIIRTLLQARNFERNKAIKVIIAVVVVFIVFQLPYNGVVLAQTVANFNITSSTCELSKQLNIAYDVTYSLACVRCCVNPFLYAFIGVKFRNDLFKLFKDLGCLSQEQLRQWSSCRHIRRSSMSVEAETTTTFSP
The description is as above.

Experiment [4] has as its target T1, human Bonzo with N-terminal …. Nature of the experiment: Scatchard analysis of 125I-labeled SExCkine binding to Bonzo/L1.2 cells. The protocol:
as §1, §2

B1: purified recombinant His-tagged SExCkine (entire predicted extracellular domain, amino acid residues 1 to 202 of SEQ ID NO:4) (ligand)
chain: NEGSVTGSCYCGKRISSDSPPSVQFMNRLRKHLRAYHRCLYYTRFQLLSWSVCGGNKDPWVQELMSCLDLKECGHAYSGIVAHQKHLLPTSPPISQASEGASSDIHTPAQMLLSTLQSTQRPTLPVGSLSSDKELTRPNETTIHTAGHSLAVGPEAGENQKQPEKNAGPTART
modifications: heavily glycosylated; iodinated with 125I where used as tracer
notes: Expressed in 293T cells, purified on wheat germ agglutinin and NiNTA; also called purified recombinant SExCkine (CXCL16); recombinant His-tagged SExCkine protein; not shown: C-terminal His tag from the pEF-His vector
B1 yielded an IC50 in experiment [1] of 1 nM. The binding result in experiment [2] and in experiment [3] was “no binding” throughout. The molecule further yielded a Kd in experiment [4] of 1 nM.
